{"source": "paper PMC8031885", "about": "“Targeted mutagenesis on PDGFRα-Fc identifies amino acid modifications that allow efficient inhibition of HCMV infection while abolishing PDGF sequestration” (PLoS Pathogens, 2021)", "binders": {"B1": {"name": "PDGFRα-Fc wild type (Fc fusion)", "chain": "QLSLPSILPNENEKVVQLNSSFSLRCFGESEVSWQYPMSEEESSDVEIRNEENNSGLFVTVLEVSSASAAHTGLYTCYYNHTQTEENELEGRHIYIYVPDPDVAFVPLGMTDYLVIVEDDDSAIIPCRTTDPETPVTLHNSEGVVPASYDSRQGFNGTFTVGPYICEATVKGKKFQTIPFNVYALKATSELDLEMEALKTVYKSGETIVVTCAVFNNEVVDLQWTYPGEVKGKGITMLEEIKVPSIKLVYTLTVPEATVKDSGDYECAARQATREVKEMKKVTISVHEKGFIEIKPTFSQLEAVNLHEVKHFVVEVRAYPPPRISWLKNNLTLIENLTEITTDVEKIQEIRYRSKLKLIRAKEEDSGHYTIVAQNEDAVKSYTFELLTQVPSSILDLVDDHHGSTGGQTVRCTAEGTPLPDIEWMICKDIKKCNNETSWTILANNVSNIITEIHSRDRSTVEGRVTFAKVEETIAVRCLAKNLLGAENRELKLVAPTLRSELTVA"}, "B2": {"name": "PDGFRα-Fc I139E + V242K (Fc fusion)", "chain": "QLSLPSILPNENEKVVQLNSSFSLRCFGESEVSWQYPMSEEESSDVEIRNEENNSGLFVTVLEVSSASAAHTGLYTCYYNHTQTEENELEGRHIYIYVPDPDVAFVPLGMTDYLVEVEDDDSAIIPCRTTDPETPVTLHNSEGVVPASYDSRQGFNGTFTVGPYICEATVKGKKFQTIPFNVYALKATSELDLEMEALKTVYKSGETIVVTCAVFNNEKVDLQWTYPGEVKGKGITMLEEIKVPSIKLVYTLTVPEATVKDSGDYECAARQATREVKEMKKVTISVHEKGFIEIKPTFSQLEAVNLHEVKHFVVEVRAYPPPRISWLKNNLTLIENLTEITTDVEKIQEIRYRSKLKLIRAKEEDSGHYTIVAQNEDAVKSYTFELLTQVPSSILDLVDDHHGSTGGQTVRCTAEGTPLPDIEWMICKDIKKCNNETSWTILANNVSNIITEIHSRDRSTVEGRVTFAKVEETIAVRCLAKNLLGAENRELKLVAPTLRSELTVA"}, "B3": {"name": "PDGFRα-Fc Y206S + V242K (Fc fusion)", "chain": "QLSLPSILPNENEKVVQLNSSFSLRCFGESEVSWQYPMSEEESSDVEIRNEENNSGLFVTVLEVSSASAAHTGLYTCYYNHTQTEENELEGRHIYIYVPDPDVAFVPLGMTDYLVIVEDDDSAIIPCRTTDPETPVTLHNSEGVVPASYDSRQGFNGTFTVGPYICEATVKGKKFQTIPFNVSALKATSELDLEMEALKTVYKSGETIVVTCAVFNNEKVDLQWTYPGEVKGKGITMLEEIKVPSIKLVYTLTVPEATVKDSGDYECAARQATREVKEMKKVTISVHEKGFIEIKPTFSQLEAVNLHEVKHFVVEVRAYPPPRISWLKNNLTLIENLTEITTDVEKIQEIRYRSKLKLIRAKEEDSGHYTIVAQNEDAVKSYTFELLTQVPSSILDLVDDHHGSTGGQTVRCTAEGTPLPDIEWMICKDIKKCNNETSWTILANNVSNIITEIHSRDRSTVEGRVTFAKVEETIAVRCLAKNLLGAENRELKLVAPTLRSELTVA"}, "B4": {"name": "PDGFRα-Fc I139E + Y206S (Fc fusion)", "chain": "QLSLPSILPNENEKVVQLNSSFSLRCFGESEVSWQYPMSEEESSDVEIRNEENNSGLFVTVLEVSSASAAHTGLYTCYYNHTQTEENELEGRHIYIYVPDPDVAFVPLGMTDYLVEVEDDDSAIIPCRTTDPETPVTLHNSEGVVPASYDSRQGFNGTFTVGPYICEATVKGKKFQTIPFNVSALKATSELDLEMEALKTVYKSGETIVVTCAVFNNEVVDLQWTYPGEVKGKGITMLEEIKVPSIKLVYTLTVPEATVKDSGDYECAARQATREVKEMKKVTISVHEKGFIEIKPTFSQLEAVNLHEVKHFVVEVRAYPPPRISWLKNNLTLIENLTEITTDVEKIQEIRYRSKLKLIRAKEEDSGHYTIVAQNEDAVKSYTFELLTQVPSSILDLVDDHHGSTGGQTVRCTAEGTPLPDIEWMICKDIKKCNNETSWTILANNVSNIITEIHSRDRSTVEGRVTFAKVEETIAVRCLAKNLLGAENRELKLVAPTLRSELTVA"}, "B5": {"name": "PDGFRα-Fc I139A + Y206A (Fc fusion)", "chain": "QLSLPSILPNENEKVVQLNSSFSLRCFGESEVSWQYPMSEEESSDVEIRNEENNSGLFVTVLEVSSASAAHTGLYTCYYNHTQTEENELEGRHIYIYVPDPDVAFVPLGMTDYLVAVEDDDSAIIPCRTTDPETPVTLHNSEGVVPASYDSRQGFNGTFTVGPYICEATVKGKKFQTIPFNVAALKATSELDLEMEALKTVYKSGETIVVTCAVFNNEVVDLQWTYPGEVKGKGITMLEEIKVPSIKLVYTLTVPEATVKDSGDYECAARQATREVKEMKKVTISVHEKGFIEIKPTFSQLEAVNLHEVKHFVVEVRAYPPPRISWLKNNLTLIENLTEITTDVEKIQEIRYRSKLKLIRAKEEDSGHYTIVAQNEDAVKSYTFELLTQVPSSILDLVDDHHGSTGGQTVRCTAEGTPLPDIEWMICKDIKKCNNETSWTILANNVSNIITEIHSRDRSTVEGRVTFAKVEETIAVRCLAKNLLGAENRELKLVAPTLRSELTVA"}, "B6": {"name": "PDGFRα-Fc I139E (Fc fusion)", "chain": "QLSLPSILPNENEKVVQLNSSFSLRCFGESEVSWQYPMSEEESSDVEIRNEENNSGLFVTVLEVSSASAAHTGLYTCYYNHTQTEENELEGRHIYIYVPDPDVAFVPLGMTDYLVEVEDDDSAIIPCRTTDPETPVTLHNSEGVVPASYDSRQGFNGTFTVGPYICEATVKGKKFQTIPFNVYALKATSELDLEMEALKTVYKSGETIVVTCAVFNNEVVDLQWTYPGEVKGKGITMLEEIKVPSIKLVYTLTVPEATVKDSGDYECAARQATREVKEMKKVTISVHEKGFIEIKPTFSQLEAVNLHEVKHFVVEVRAYPPPRISWLKNNLTLIENLTEITTDVEKIQEIRYRSKLKLIRAKEEDSGHYTIVAQNEDAVKSYTFELLTQVPSSILDLVDDHHGSTGGQTVRCTAEGTPLPDIEWMICKDIKKCNNETSWTILANNVSNIITEIHSRDRSTVEGRVTFAKVEETIAVRCLAKNLLGAENRELKLVAPTLRSELTVA"}, "B7": {"name": "PDGFRα-Fc Y206S (Fc fusion)", "chain": "QLSLPSILPNENEKVVQLNSSFSLRCFGESEVSWQYPMSEEESSDVEIRNEENNSGLFVTVLEVSSASAAHTGLYTCYYNHTQTEENELEGRHIYIYVPDPDVAFVPLGMTDYLVIVEDDDSAIIPCRTTDPETPVTLHNSEGVVPASYDSRQGFNGTFTVGPYICEATVKGKKFQTIPFNVSALKATSELDLEMEALKTVYKSGETIVVTCAVFNNEVVDLQWTYPGEVKGKGITMLEEIKVPSIKLVYTLTVPEATVKDSGDYECAARQATREVKEMKKVTISVHEKGFIEIKPTFSQLEAVNLHEVKHFVVEVRAYPPPRISWLKNNLTLIENLTEITTDVEKIQEIRYRSKLKLIRAKEEDSGHYTIVAQNEDAVKSYTFELLTQVPSSILDLVDDHHGSTGGQTVRCTAEGTPLPDIEWMICKDIKKCNNETSWTILANNVSNIITEIHSRDRSTVEGRVTFAKVEETIAVRCLAKNLLGAENRELKLVAPTLRSELTVA"}}, "assay_in_all_cases": "cell-based or functional assay", "key": {"PDGF-BB": {"target": "PDGF-BB (UniProt P01127 82-190, NT-647 dye on amines (amine reactive labelling kit RED-NHS) in the MST experiments; unlabelled in the signalling assays)"}, "[1]": {"target": "T1, gH/gL/gO trimer of HCMV TB40-BAC4 (human cytomegalovirus, strain TB40/E …)"}, "[2]": {"target": "T1, gH/gL/gO trimer of HCMV TB40-BAC4", "remark": "listed apart in the source"}, "[3]": {"target": "T1, gH/gL/gO trimer of HCMV TB40-BAC4", "remark": "listed apart in the source"}}}
{"binder": "B1", "values": [{"measurement": "EC50 for inhibition of PDGF signaling (6 ng/ml PDGF-BB, phospho-Akt ELISA, fibroblasts)", "setting": "PDGF-BB", "value": 0.013, "unit": "µg/mL"}, {"measurement": "EC50 of inhibition of HCMV TB40-BAC4-IE-GLuc infection of fibroblasts (Gaussia luciferase read-out)", "setting": "[1]", "value": "< 0.02", "unit": "µg/mL"}, {"measurement": "EC50 of inhibition of HCMV TB40-BAC4 infection of fibroblasts and of endothelial cells (immediate-early antigen staining)", "setting": "[1]", "value": "~0.01", "unit": "µg/mL"}, {"measurement": "HCMV inhibition EC50 (TB40-BAC4-IE-GLuc, fibroblasts, immediate-early antigen staining)", "setting": "[2]", "value": 0.0056, "unit": "µg/mL"}, {"measurement": "HCMV inhibition EC50 (Table 2; differs from Table 1)", "setting": "[3]", "value": 0.0046, "unit": "µg/mL"}]}
{"binder": "B2", "values": [{"measurement": "HCMV inhibition EC50 (fibroblasts, immediate-early antigen staining)", "setting": "[1]", "value": 0.027, "unit": "µg/mL"}]}
{"binder": "B3", "values": [{"measurement": "HCMV inhibition EC50 (fibroblasts, immediate-early antigen staining)", "setting": "[1]", "value": 0.047, "unit": "µg/mL"}]}
{"binder": "B4", "values": [{"measurement": "HCMV inhibition EC50 (TB40-BAC4-IE-GLuc, fibroblasts, immediate-early antigen staining)", "setting": "[2]", "value": 0.0252, "unit": "µg/mL"}]}
{"binder": "B5", "values": [{"measurement": "HCMV inhibition EC50 (TB40-BAC4-IE-GLuc, fibroblasts, immediate-early antigen staining)", "setting": "[2]", "value": 0.0198, "unit": "µg/mL"}]}
{"binder": "B6", "values": [{"measurement": "EC50 for inhibition of PDGF signaling (6 ng/ml PDGF-BB, phospho-Akt ELISA, fibroblasts); the paper says incomplete inhibition precludes a precise value", "setting": "PDGF-BB", "value": "~2", "unit": "µg/mL"}, {"measurement": "HCMV inhibition EC50 (TB40-BAC4-IE-GLuc, fibroblasts, immediate-early antigen staining)", "setting": "[2]", "value": 0.0328, "unit": "µg/mL"}]}
{"binder": "B7", "values": [{"measurement": "HCMV inhibition EC50 (TB40-BAC4-IE-GLuc, fibroblasts, immediate-early antigen staining)", "setting": "[2]", "value": 0.0311, "unit": "µg/mL"}]}
